Assay results from US12018084B2, “Anti-CXCR2 antibodies and uses thereof” (Cephalon LLC, priority 2018, dated 2024).
Positions count from the first letter of the chain named. Read-outs that look alike come from different tables or passages of the source. One block for each molecule: values may come before it.

Experiments:
Human CXCR2 = molecular target: T1, Human CXCR2 (Homo sapiens, UniProt P25025); experiment: Tango CXCR2-bla U2OS cell-based β-arrestin recruitment assay; set-up: The beta-arrestin/TEV protease fusion and the beta-lactamase reporter are separate parts of the cell line
T1 sequence (P25025 1-360): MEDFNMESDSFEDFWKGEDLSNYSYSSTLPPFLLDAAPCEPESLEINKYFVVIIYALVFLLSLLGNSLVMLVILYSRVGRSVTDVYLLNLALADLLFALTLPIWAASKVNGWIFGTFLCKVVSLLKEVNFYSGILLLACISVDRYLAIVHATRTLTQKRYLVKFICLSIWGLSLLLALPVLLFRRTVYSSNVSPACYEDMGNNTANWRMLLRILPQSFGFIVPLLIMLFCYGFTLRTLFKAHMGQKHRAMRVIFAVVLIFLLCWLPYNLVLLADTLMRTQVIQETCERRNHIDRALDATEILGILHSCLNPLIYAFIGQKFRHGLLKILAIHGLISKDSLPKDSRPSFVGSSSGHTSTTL
Description: Cells were thawed, propagated, cultured and frozen according to the manufacturer's directions.
Preparation of Tango™ CXCR2-bla U2OS cells for use in cell-based assays: The manufacturer's protocol was altered to make use of 96-well plates instead of 384-well plates. Briefly, dividing cells were harvested one day prior to use. Cells were harvested and resuspended in assay medium (100% FreeStyle™ Expression Medium; Life Technologies; Cat #12338-018) at a viable cell density of 312,500 cells/mL. 128 μL of cell suspension was added per well in 96-well black-walled, clear bottom tissue culture-treated plates. Cells were incubated for 16-20 hrs at 37° C. in an atmosphere of 5% CO2 prior to use in assays.
Tango™ assay procedure: Assays were set up and run as described in the manufacturer's protocol. For antagonist assays, agonists were used at concentrations in the EC50-EC80 range. Assays were read using a FlexStation® 3 (Molecular Devices) fluorescence plate reader configured with the parameters given in Table 4. The blue/green emission ratio for each well was calculated by dividing the blue emission values by the green emission values. All inhibition curves were fitted using a four-parameter dose-response using GraphPad Prism™ (Version 7.01).
The Human CXCR2 Tango™ cell line was used to assess the ability of antibody BKO-4A8-101c to inhibit β-arrestin recruitment to agonist-activated CXCR2. All human ELR+ chemokine CXCR2 ligands were tested in antagonist dose response assays using calculated EC50 values of agonist.
The commercially available reporter cell line Tango™ CXCR2-bla U2OS (ThermoFisher Scientific) was used to assess the ability of the anti-CXCR2 antibodies to inhibit β-arrestin recruitment to agonist-activated CXCR2. Agonists were provided at their assay EC50 concentration for antagonist assays.

[1] = molecular target: T2, native human CXCR2 expressed by human neutrophils (Homo sapiens, UniProt P25025); experiment: Flow cytometry binding to human blood cells (neutrophils, monocytes, PBMC preparations)
T2 construct: native human CXCR2 expressed by human neutrophils; endogenous in cells; host or cells: human peripheral blood cells (buffy coat, PBMC-enriched fractions, anticoagulated blood): neutrophils, monocytes
T2 sequence (P25025 1-360): T1 sequence (P25025 1-360)
Experimental: Whole human buffy coat, PBMC enriched fractions prepared from human peripheral blood buffy coat or cynomolgus monkey whole blood was used for analysis of antibody binding activity by flow cytometry. Briefly, blood was untreated or diluted 1:1 in sterile filtered room temperature phosphate-buffered saline (PBS). 30 mL samples were layered over 15 mL Lymphoprep™ (Stem Cell Technologies, cat #07851). Peripheral blood mononuclear cells (PBMC) were enriched by room temperature centrifugation at 700 g for 30 minutes with no braking. The PBMC layer was isolated and cells washed in PBS containing 2 mM EDTA with low speed centrifugation at 200 g, to remove platelet contamination. Whole blood or PBMC enriched cell fractions were resuspended in red blood cell lysing solution (BioLegend, 420301). Viable cell counts were determined and cells resuspended at 1×10^7 cells per mL in FACS buffer (1×PBS+0.5% (w/v) BSA+2 mM EDTA pH 7.2).
Flow cytometry binding assays using whole blood or PBMC enriched preparations: Binding assays to detect CXCR2 on blood neutrophil populations using test antibodies were performed essentially as described for assays using transiently transfected Expi293F™ cells. Binding of antibodies to human CXCR2 on the surface of the neutrophils was measured using anti-CXCR2 antibody directly conjugated to the fluorophore allophycocyanin (APC). Matched isotype control antibodies were included for comparison. Cells were incubated with lineage specific antibodies and 2 μg/ml of APC conjugated anti-CXCR2 antibody or isotype control prepared in ice cold 3% BSA/PBS for a minimum of 30 minutes at 4° C. The commercial anti-CXCR2 antibody (clone 48331 (R&D Systems FAB331A)) was used as a positive control. Neutrophil populations were identified by characteristic granularity and size, and positive binding of commercially available antibodies against CD10 (Biolegend, clone H110a, catalogue number 312204). Cells were washed and fixed (BioLegend Fixation buffer, 420801) prior to analysis. The level of fluorescence on the cell surface was measured by flow cytometry. Using this method, test anti-CXCR2 antibodies were detected binding neutrophils from both human and cynomolgus monkey.
To further characterize the anti-CXCR2 antibody BKO-4A8-101c, the ability to bind CXCR2 on neutrophils was tested on anticoagulated human blood. Binding was measured using BKO-4A8-101c directly conjugated to fluorophore APC. Matched isotype control antibodies conjugated to APC were included for comparison. Cells were incubated with lineage-specific antibodies and 2 μg/mL of APC conjugated anti-CXCR2 antibody or isotype control. The level of fluorescence on the cell surface was measured by flow cytometry. […]

- potency of inhibition of CXCL1-mediated activation of CXCR2, ranking (Human CXCR2; agonist CXCL1, BKO-4A8, BKO-8G3_b, BKO-9C3_a compared): consistently the most potent
- IC50 (Human CXCR2; agonist CXCL1, combinatorial variants, read-out: CXCL1 IC50): 94 nM
- IC50 (Human CXCR2; agonist CXCL1, point variants, read-out: Tango Assay IC50 (nM) CXCL1): 0.177 nM
- IC50 (Human CXCR2; read-out: CXCL8 IC50, agonist CXCL8, combinatorial variants): 0.66 nM
- IC50 (Human CXCR2; read-out: Tango Assay IC50 (nM) CXCL8, agonist CXCL8, point variants): 0.112 nM
- binding to native human CXCR2 on human PBMCs / neutrophils ([1]; FIG. 2, MFI): high binding activity
B1: BKO-4A8: parental anti-CXCR2 antibody, VH SEQ ID NO: 17, VL SEQ ID NO: 18 (antibody, V domains shown)
VH: EVQLLESGGGLVQPGGSLRLSCAASGFTFSSSTMSWVRQAPGKGLEWVSAISGRGRNTYYADSVKGRFTISRDNSRNTLYLQMNSLRAEDTAVYYCAIQMGYWGQGILVTVSS
VL: QSALTQPPSASGSPGQSVTISCIGTSSDVGGYNYVSWYQQHPDKAPKLMIYEVNKRPSGVPDRFSGSKSGNTASLTVSGLQAEDEADYYCSSYAGNNNFGVFGGGTKLTVL
modifications: BKO_4A8_VH; BKO_4A8_VL

B2: 101c: VH SEQ ID NO: 108, VL SEQ ID NO: 110; renamed BKO-4A8-101c (antibody, V domains shown)
VH: B1 VH with M34Q, A40P, N57S, R76K, M100A
VL: B1 VL with D43G, N54S, N96S
modifications: 4A8 VH Variant 101 M34Q_A40P_N56S_R75K_M96A; 4A8 VL variant c D41G_N52S_N94S
notes: renamed BKO-4A8-101c
- fold more potent than comparator CXCR2 antagonist antibodies or small molecules (Human CXCR2; CXCL1- or CXCL5-mediated β-arrestin activation, based on IC50 values): 2- to 39 fold
- CXCL1 Maximal Inhibition % (Human CXCR2; CXCL1 at EC50, comparison with comparators): 97%
- potency compared to the parental antibody (Human CXCR2; CXCL1 or CXCL8 as agonist): improved potency
- CXCL5 Maximal Inhibition % (Human CXCR2; CXCL5 at EC50, comparison with comparators): 98%
- partial inhibition of CXCL8-induced β-arrestin recruitment (range) (Human CXCR2; CXCL8): 70-80%
- CXCL8 Maximal Inhibition % (Human CXCR2; CXCL8 at EC50, comparison with comparators): 78%
- Maximal Inhibition % Mean (Human CXCR2; Hu CXCL1): 98%
- Maximal Inhibition % Mean (Human CXCR2; Hu CXCL2): 100%
- Maximal Inhibition % Mean (Human CXCR2; Hu CXCL3): 96%
- Maximal Inhibition % Mean (Human CXCR2; Hu CXCL5): 98%
- Maximal Inhibition % Mean (Human CXCR2; Hu CXCL6): 98%
- Maximal Inhibition % Mean (Human CXCR2; Hu CXCL7): 76%
- Maximal Inhibition % Mean (Human CXCR2; Hu CXCL8): 78%
- binding to neutrophils and monocytes from human blood ([1]; APC conjugate, 2 μg/mL): bound neutrophils (FIG. 12A) and monocytes (FIG. 12B)
